Assays:
G. max ALS1 protein [1] = assay: Substrate specificity ratio (Rf), pyruvate versus 2-ketobutyrate, LC-MS of reduced products; assay type: biochemical, Glycine max; settings: ratio of [pyruvate] to [2-ketobutyrate] giving equal rates of acetolactate and acetohydroxybutyrate formation; 25 mM pyruvate
From the text: The “substrate specificity ratio”, or “Rf”, characterizes the specificity of the ALS enzyme for AHB formation relative to AL formation (Gollop et al. (1989) Biochemistry 28:6310-6317). Rf is the ratio of [pyruvate] to [2-ketobutyrate] that results in equal rates of formation of acetolactate and acetohydroxybutyrate. Rf is a constant at all substrate concentrations. The substrate specificity ratio is ˜114 for the wild type Glycine max ALS1 enzyme (SEQ ID NO:1) compared to ˜3 for the highly resistant allele (HRA) double mutant variant (SEQ ID NO: 10) of the Glycine max ALS1. The soybean HRA sequence is disclosed, for example, in WO2007/024782, herein incorporated by reference.
Substrate preference was determined using the assay described in Example 3; however, the assay was conducted using a constant concentration of pyruvate (25 mM) and varying concentrations of the second substrate, 2-ketobutyrate. Each reaction involving a specific ratio of pyruvate to 2-ketobutyrate, after a set period of time, was quenched by addition of sodium borohydride (7-fold excess) to form the reduced adducts of the products of the two substrates namely; reduced acetolactate for the reaction with pyruvate and reduced aceto hydroxybutyrate for the 2-ketobutyrate reaction. The relative amounts of the two reduced products was determined by first, chromatographic separation using a 4.6×250 mm dC18 column (Atlantis) equilibrated with a 0.1% formic acid solution and subsequent elution using a methanol gradient at 0.7 ml/min, followed by detection using a Thermo FINNIGAN® LTQ® Mass Spectrometer (MS). The products of the two reactions were quantified by integration of the MS signals. The % of the amount of each of the reduced products was then plotted versus the concentration of 2-ketobutyrate. As the 2-ketobutyrate amount increased there was a consequent increase in reduced acetohydroxybutyrate (AHB) and decrease in reduced acetolactate (AL). […] The substrate specificity ratio was ˜114 for the wild type enzyme compared to 3 for the highly resistant allele (HRA) double mutant ALS variant (SEQ ID NO: 10).

G. max ALS1 protein [2] = assay: Colorimetric ALS kinetic assay (Km, kcat) with pyruvate as substrate; assay type: biochemical, Glycine max
Experimental: A survey of known ALS (AcetoLactate Synthase) gene variants (Table 2) was performed, and a number of ALS variants were selected for kinetic evaluation based on breadth and strength of insensitivity to ALS-inhibitor herbicides as well as kinetic activity parameters including the ratio of substrate preferences. The selected ALS gene variants (Table 3) were generated by PCR mediated site-directed mutagenesis. Finnzymes PHUSION® DNA polymerase (Cat. No. F-530S) was used for the PCR reactions, following the instructions for recommended temperatures and cycles in the PHUSION® protocol. Some mutagenesis reactions were assisted by the use of IN-FUSION® enzyme (Clontech Cat. No. 639620) to circularize a linear plasmid with the mutation located within the 15 nucleotide overlapping ends, via recombination following the manufacturer's protocol for primer design and reaction conditions. The ALS genes, beginning with encoded amino acids SISK, (S48 to K51 in the G. max ALS1 protein (SEQ ID NO:1) corresponding to the mature protein N-terminus of the chloroplast localized enzyme), were cloned into the PMAL® E. coli expression vector (New England Biolabs) to express ALS as a fusion protein with a Maltose-Binding Protein (MBP) at the N-terminus with a thrombin site for cleavage and a His-6 tag for affinity purification. All in vitro protein characterization described in the examples was carried out with the isolated proteins after cleavage from the His-MBP fusion partner.
Km and Kcat determinations for recombinant ALS variants (with respect to pyruvate as the substrate) were performed using a colorimetric assay. ALS assays were carried out in 96-well microplates with 150 ul reaction containing 25 mM potassium phosphate, 0.2 mg/ml BSA, 15 mM MgCl2, 0.7 mM TPP, 28 uM FAD and 0-100 mM sodium pyruvate. Reactions were initiated by the addition of ALS enzyme to a final amount of 0.8 ug/well. Parameters for Km and Vmax were determined by fitting the velocity versus substrate concentration data to a rectangular hyperbola using GraphPad Prism software. Kcat values were determined from Vmax based on protein concentration in the reactions.

Molecule | Substrate specificity ratio (Rf) (G. max ALS1 protein [1]) | Km (G. max ALS1 protein [2]) | kcat (G. max ALS1 protein [2])
GM-ALS_P178A: Glycine Max ALS1 variant with a P→A mutation at position 178 (protein, ALS1 variant P178A) MAATASRTTRFSSSSSHPTFPKRITRSTLPLSHQTLTKPNHALKIKCSISKPPTAAPFTKEAPTTEPFVSRFASGEPRKGADILVEALERQGVTTVFAYPGGASMEIHQALTRSAAIRNVLPRHEQGGVFAAEGYARSSGLPGVCIATSGPGATNLVSGLADALMDSVPVVAITGQVARRMIGTDAFQETPIVEVSRSITKHNYLILDVDDIPRVVAEAFFVATSGRPGPVLIDIPKDVQQQLAVPNWDEPVNLPGYLARLPRPPAEAQLEHIVRLIMEAQKPVLYVGGGSLNSSAELRRFVELTGIPVASTLMGLGTFPIGDEYSLQMLGMHGTVYANYAVDNSDLLLAFGVRFDDRVTGKLEAFASRAKIVHIDIDSAEIGKNKQAHVSVCADLKLALKGINMILEEKGVEGKFDLGGWREEINVQKHKFPLGYKTFQDAISPQHAIEVLDELTNGDAIVSTGVGQHQMWAAQFYKYKRPRQWLTSGGLGAMGFGLPAAIGAAVANPGAVVVDIDGDGSFIMNVQELATIRVENLPVKILLLNNQHLGMVVQWEDRFYKSNRAHTYLGDPSSESEIFPNMLKFADACGIPAARVTKKEELRAAIQRMLDTPGPYLLDVIVPHQEHVLPMIPSNGSFKDVITEGDGRTRY | 119.0 | 5 mM | 1.08 s⁻¹
GM-ALS_P178Q: Glycine Max ALS1 variant with a P→Q mutation at position 178 (protein, ALS1 variant P178Q) MAATASRTTRFSSSSSHPTFPKRITRSTLPLSHQTLTKPNHALKIKCSISKPPTAAPFTKEAPTTEPFVSRFASGEPRKGADILVEALERQGVTTVFAYPGGASMEIHQALTRSAAIRNVLPRHEQGGVFAAEGYARSSGLPGVCIATSGPGATNLVSGLADALMDSVPVVAITGQVQRRMIGTDAFQETPIVEVSRSITKHNYLILDVDDIPRVVAEAFFVATSGRPGPVLIDIPKDVQQQLAVPNWDEPVNLPGYLARLPRPPAEAQLEHIVRLIMEAQKPVLYVGGGSLNSSAELRRFVELTGIPVASTLMGLGTFPIGDEYSLQMLGMHGTVYANYAVDNSDLLLAFGVRFDDRVTGKLEAFASRAKIVHIDIDSAEIGKNKQAHVSVCADLKLALKGINMILEEKGVEGKFDLGGWREEINVQKHKFPLGYKTFQDAISPQHAIEVLDELTNGDAIVSTGVGQHQMWAAQFYKYKRPRQWLTSGGLGAMGFGLPAAIGAAVANPGAVVVDIDGDGSFIMNVQELATIRVENLPVKILLLNNQHLGMVVQWEDRFYKSNRAHTYLGDPSSESEIFPNMLKFADACGIPAARVTKKEELRAAIQRMLDTPGPYLLDVIVPHQEHVLPMIPSNGSFKDVITEGDGRTRY | 86.0 | 3 mM | 2.72 s⁻¹
GM-ALS_P178L: Glycine Max ALS1 variant with a P→L mutation at position 178 (protein, ALS1 variant P178L) MAATASRTTRFSSSSSHPTFPKRITRSTLPLSHQTLTKPNHALKIKCSISKPPTAAPFTKEAPTTEPFVSRFASGEPRKGADILVEALERQGVTTVFAYPGGASMEIHQALTRSAAIRNVLPRHEQGGVFAAEGYARSSGLPGVCIATSGPGATNLVSGLADALMDSVPVVAITGQVLRRMIGTDAFQETPIVEVSRSITKHNYLILDVDDIPRVVAEAFFVATSGRPGPVLIDIPKDVQQQLAVPNWDEPVNLPGYLARLPRPPAEAQLEHIVRLIMEAQKPVLYVGGGSLNSSAELRRFVELTGIPVASTLMGLGTFPIGDEYSLQMLGMHGTVYANYAVDNSDLLLAFGVRFDDRVTGKLEAFASRAKIVHIDIDSAEIGKNKQAHVSVCADLKLALKGINMILEEKGVEGKFDLGGWREEINVQKHKFPLGYKTFQDAISPQHAIEVLDELTNGDAIVSTGVGQHQMWAAQFYKYKRPRQWLTSGGLGAMGFGLPAAIGAAVANPGAVVVDIDGDGSFIMNVQELATIRVENLPVKILLLNNQHLGMVVQWEDRFYKSNRAHTYLGDPSSESEIFPNMLKFADACGIPAARVTKKEELRAAIQRMLDTPGPYLLDVIVPHQEHVLPMIPSNGSFKDVITEGDGRTRY | 119.0 | 14.8 mM | 4.18 s⁻¹
GM-ALS_P178L_W555L: Glycine Max ALS1 with P→L at position 178 and W→L at position 555 (protein, ALS1 variant P178L W555L) MAATASRTTRFSSSSSHPTFPKRITRSTLPLSHQTLTKPNHALKIKCSISKPPTAAPFTKEAPTTEPFVSRFASGEPRKGADILVEALERQGVTTVFAYPGGASMEIHQALTRSAAIRNVLPRHEQGGVFAAEGYARSSGLPGVCIATSGPGATNLVSGLADALMDSVPVVAITGQVLRRMIGTDAFQETPIVEVSRSITKHNYLILDVDDIPRVVAEAFFVATSGRPGPVLIDIPKDVQQQLAVPNWDEPVNLPGYLARLPRPPAEAQLEHIVRLIMEAQKPVLYVGGGSLNSSAELRRFVELTGIPVASTLMGLGTFPIGDEYSLQMLGMHGTVYANYAVDNSDLLLAFGVRFDDRVTGKLEAFASRAKIVHIDIDSAEIGKNKQAHVSVCADLKLALKGINMILEEKGVEGKFDLGGWREEINVQKHKFPLGYKTFQDAISPQHAIEVLDELTNGDAIVSTGVGQHQMWAAQFYKYKRPRQWLTSGGLGAMGFGLPAAIGAAVANPGAVVVDIDGDGSFIMNVQELATIRVENLPVKILLLNNQHLGMVVQLEDRFYKSNRAHTYLGDPSSESEIFPNMLKFADACGIPAARVTKKEELRAAIQRMLDTPGPYLLDVIVPHQEHVLPMIPSNGSFKDVITEGDGRTRY | 2.7 | 36 mM | 0.35 s⁻¹
GM-ALS_P178A_F559D: Glycine Max ALS1 with P→A at position 178 and F→D at position 559 (protein, ALS1 variant P178A F559D) MAATASRTTRFSSSSSHPTFPKRITRSTLPLSHQTLTKPNHALKIKCSISKPPTAAPFTKEAPTTEPFVSRFASGEPRKGADILVEALERQGVTTVFAYPGGASMEIHQALTRSAAIRNVLPRHEQGGVFAAEGYARSSGLPGVCIATSGPGATNLVSGLADALMDSVPVVAITGQVARRMIGTDAFQETPIVEVSRSITKHNYLILDVDDIPRVVAEAFFVATSGRPGPVLIDIPKDVQQQLAVPNWDEPVNLPGYLARLPRPPAEAQLEHIVRLIMEAQKPVLYVGGGSLNSSAELRRFVELTGIPVASTLMGLGTFPIGDEYSLQMLGMHGTVYANYAVDNSDLLLAFGVRFDDRVTGKLEAFASRAKIVHIDIDSAEIGKNKQAHVSVCADLKLALKGINMILEEKGVEGKFDLGGWREEINVQKHKFPLGYKTFQDAISPQHAIEVLDELTNGDAIVSTGVGQHQMWAAQFYKYKRPRQWLTSGGLGAMGFGLPAAIGAAVANPGAVVVDIDGDGSFIMNVQELATIRVENLPVKILLLNNQHLGMVVQWEDRDYKSNRAHTYLGDPSSESEIFPNMLKFADACGIPAARVTKKEELRAAIQRMLDTPGPYLLDVIVPHQEHVLPMIPSNGSFKDVITEGDGRTRY | 100.0 | 40 mM | 0.6 s⁻¹

— patent publication US10294487B2, “Methods and compositions involving ALS variants with native substrate preference” (E I DU PONT DE NEMOURS AND COMPANY, priority 2012, dated 2019)
